Literature values in article PMC7599994.

Molecular target: HIV-1 capsid CA CTD (Human immunodeficiency virus 1) (UniProt O93182)

In the case of “HIV-1 capsid CA CTD (from UniProt O93182)”, the Kd is listed as 10 µM.
